Tested on: peptide library, one residue held at a place counted from the Y acceptor
Assay: relative phosphorylation of the sub-library (ratio to the mean residue at this position); higher = residue favoured
Method in brief: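 Each value expresses phosphorylation relative to the mean randomized residue. Purified recombinant kinases acted for 90 min in 384-well plates on biotinylated Tyr-centred peptide library mixtures, with one residue fixed at one position from −5 to +5, in the presence of 50 μM ATP with γ-32P-ATP. Signals were read by phosphorimaging after capture on streptavidin membranes, then normalized per position to the sum of the 18 randomized residues (16 in the Ser/Thr-free library) and multiplied by that number.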

Chain of RET, construct: aa658-end, human (P07949 658-1114, looked up): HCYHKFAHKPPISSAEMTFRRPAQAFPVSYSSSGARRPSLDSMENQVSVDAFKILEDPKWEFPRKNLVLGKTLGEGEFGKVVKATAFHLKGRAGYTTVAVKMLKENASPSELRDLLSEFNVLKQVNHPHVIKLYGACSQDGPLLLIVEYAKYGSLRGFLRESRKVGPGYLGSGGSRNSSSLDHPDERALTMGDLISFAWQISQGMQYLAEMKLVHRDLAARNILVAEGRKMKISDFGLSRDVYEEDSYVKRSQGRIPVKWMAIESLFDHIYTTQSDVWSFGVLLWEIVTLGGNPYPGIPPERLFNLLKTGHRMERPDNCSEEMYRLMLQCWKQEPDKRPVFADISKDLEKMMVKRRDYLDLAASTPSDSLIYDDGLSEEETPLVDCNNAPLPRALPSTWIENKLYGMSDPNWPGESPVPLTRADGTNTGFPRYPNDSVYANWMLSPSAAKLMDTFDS
Chain of PKMYT1, construct: Full length, human (Q99640 whole entry, looked up): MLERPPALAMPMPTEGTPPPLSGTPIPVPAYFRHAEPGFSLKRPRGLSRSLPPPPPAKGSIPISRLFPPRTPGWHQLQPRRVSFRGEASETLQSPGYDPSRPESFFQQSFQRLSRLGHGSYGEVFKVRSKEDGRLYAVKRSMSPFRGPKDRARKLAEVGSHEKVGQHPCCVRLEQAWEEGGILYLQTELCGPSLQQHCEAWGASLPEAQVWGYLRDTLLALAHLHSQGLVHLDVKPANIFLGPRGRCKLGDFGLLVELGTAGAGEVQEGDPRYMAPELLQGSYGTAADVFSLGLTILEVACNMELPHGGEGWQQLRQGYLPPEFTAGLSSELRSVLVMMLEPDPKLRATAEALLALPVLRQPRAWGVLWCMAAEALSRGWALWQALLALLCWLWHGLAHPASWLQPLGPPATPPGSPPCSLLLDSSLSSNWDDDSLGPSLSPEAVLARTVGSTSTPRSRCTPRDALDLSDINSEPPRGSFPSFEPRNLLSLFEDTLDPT

PKMYT1, construct: Full length, human (from UniProt Q99640)
relative phosphorylation
Settings	at +1	at +2	at +3	at +4	at +5	at -1	at -2	at -3	at -4	at -5
A fixed	0.864	0.982	0.813	1.11	0.947	1.04	1.05	1.2	1.2	1.16
D fixed	0.69	0.754	0.728	0.889	0.933	0.756	0.814	0.784	0.792	0.741
E fixed	0.834	0.775	0.66	0.833	0.979	0.845	0.915	0.837	0.84	0.772
F fixed	0.794	1.12	1.55	1.01	1.03	0.72	1.01	1.09	1.06	1.18
G fixed	1.64	1.08	1.01	1.18	1.03	2.03	1.4	1.14	1.27	0.902
H fixed	0.813	0.945	0.911	1.11	1.13	0.945	1.14	1.06	1.01	1.15
I fixed	1.29	1.03	1.24	1.1	1	0.863	1.09	0.996	0.901	1.02
K fixed	1	1.32	0.831	1.09	1	1.02	0.978	0.943	1.03	1.2
L fixed	0.691	0.935	0.973	0.928	0.912	0.705	0.791	0.867	0.758	0.886
M fixed	0.837	0.935	0.988	0.966	0.936	0.751	0.897	0.883	0.875	0.908
N fixed	0.774	0.873	0.728	0.785	0.905	0.834	0.982	0.93	0.87	0.885
P fixed	1.35	1.14	1.09	0.925	1.02	1.45	1	1.11	1.14	0.842
Q fixed	0.865	0.821	0.667	0.787	0.853	0.828	0.777	0.867	0.928	0.855
R fixed	1.18	1.25	0.938	1.12	1.29	1.18	1.08	1.23	1.26	1.31
V fixed	1.39	1.07	0.967	0.998	0.918	1.01	1.09	1.04	0.936	0.928
W fixed	0.992	0.962	1.92	1.16	1.12	1.02	0.995	1.02	1.15	1.26
pThr fixed	0.868	0.729	0.691	0.838	0.635	1.04	0.974	0.888	0.912	0.719
pTyr fixed	0.831	0.87	0.7	0.883	0.789	1.83	0.974	1.05	0.841	0.849

PTK6, construct: Full length, human (from UniProt Q13882)
relative phosphorylation
Settings	at +1	at +2	at +3	at +4	at +5	at -1	at -2	at -3	at -4	at -5
A fixed	0.945	0.766	0.805	0.972	0.852	0.665	0.982	0.951	1.08	1.03
D fixed	0.404	0.528	1.01	0.758	0.874	0.64	1.12	1.18	1.33	1.15
E fixed	1.42	0.424	0.846	0.904	0.956	0.542	1.27	1.79	1.39	1.17
F fixed	0.732	1.11	1.43	1.22	1.45	2.44	0.78	1.19	1.12	1.07
G fixed	1.13	0.736	1.32	1.11	1.02	0.288	1.28	0.942	1.12	1.07
H fixed	0.786	0.574	1.3	1.05	0.954	1.52	1.18	1.04	1.04	0.925
I fixed	1.23	1.12	0.957	0.798	1.12	3.11	0.824	0.81	0.822	0.888
K fixed	0.652	0.804	0.718	0.949	0.775	0.283	0.529	0.728	0.697	0.917
L fixed	0.869	1.47	0.689	0.813	1.06	1.62	0.881	0.879	0.919	0.99
M fixed	1.02	1.51	0.755	1.09	1.08	0.805	0.702	0.867	0.843	0.948
N fixed	0.91	1.04	0.812	0.784	0.878	0.587	1.17	1.25	1.22	1.11
P fixed	0.223	1.1	0.995	1.35	1.36	0.774	0.976	0.869	1.11	1.1
Q fixed	1.32	0.607	0.763	1.01	0.75	0.43	0.998	0.811	0.977	0.995
R fixed	1.07	1.12	0.985	1.17	0.853	0.261	0.631	0.86	0.821	0.997
S fixed	1.24	0.902	0.97	0.871	0.837	0.418	1.2	0.962	0.833	0.863
T fixed	1.64	0.587	0.732	0.72	0.818	0.83	0.814	0.84	0.637	0.778
V fixed	1.48	0.616	0.863	0.884	0.898	1.43	0.855	0.705	0.742	0.632
W fixed	0.938	2.98	2.04	1.55	1.46	1.35	1.81	1.33	1.3	1.38
pThr fixed	0.711	0.441	0.759	0.797	0.891	0.57	0.79	0.848	0.878	1.08
pTyr fixed	1.06	0.75	1.06	1.28	1.08	3.6	1.01	1.21	1.15	1.14

RET, construct: aa658-end, human (from UniProt P07949)
relative phosphorylation
Settings	at +1	at +2	at +3	at +4	at +5	at -1	at -2	at -3	at -4	at -5
A fixed	0.957	0.877	0.845	0.859	0.923	0.865	0.967	0.857	1.08	1.05
D fixed	0.306	0.726	0.705	0.87	0.823	1.29	0.865	1.04	1.02	0.925
E fixed	0.415	0.976	0.636	0.831	0.783	1.2	0.885	1.43	1.1	0.86
F fixed	1.49	1.1	1.12	1.14	0.844	1.02	0.624	0.934	0.881	0.91
G fixed	0.541	0.643	0.88	1.05	1.44	0.5	1.34	1.18	1.27	1.23
H fixed	1.37	0.942	1.17	1.1	1.14	1.4	1.04	1.11	1	1.04
I fixed	1.59	0.802	1.28	0.73	0.765	1.46	0.674	0.606	0.749	0.786
K fixed	0.629	0.939	0.582	1.12	1.17	0.656	1.3	1.11	1.26	1.33
L fixed	1.41	1.07	1.09	0.83	0.76	1.12	0.768	0.748	0.888	0.872
M fixed	1.29	0.996	1.2	1.01	0.972	0.76	0.712	0.769	0.931	0.875
N fixed	0.513	1.21	0.865	1.08	1.09	1.29	1.2	1.14	0.859	1.05
P fixed	0.494	0.965	1.24	1.17	1.54	0.896	1.19	1.15	1.23	1.1
Q fixed	1.06	1.11	1.01	1.22	1.05	1	1.26	0.964	1.16	1.05
R fixed	1.02	1.37	0.818	1.34	1.29	0.672	1.52	1.3	1.31	1.42
S fixed	0.889	0.97	0.884	0.888	1	0.695	1.24	1.09	0.89	0.95
T fixed	0.943	1.01	0.962	0.874	0.952	0.984	1.04	1.04	0.757	0.892
V fixed	1.42	0.924	1.15	0.775	0.635	1.12	0.708	0.646	0.735	0.773
W fixed	1.66	1.37	1.56	1.11	0.819	1.07	0.668	0.879	0.883	0.882
pThr fixed	0.469	1.04	0.392	0.595	0.607	0.878	0.723	1.02	0.966	0.876
pTyr fixed	1.17	1.45	0.459	0.586	0.622	1.46	0.933	1.85	1.23	1.15

SRC, construct: Full length, human (from UniProt P12931)
relative phosphorylation
Settings	at +1	at +2	at +3	at +4	at +5	at -1	at -2	at -3	at -4	at -5
A fixed	1.71	1.04	0.531	0.882	1.03	0.537	1.09	0.87	1.12	1.01
D fixed	0.651	0.589	0.472	0.783	0.787	0.691	1.57	1.93	1.48	1.36
E fixed	1.43	1.36	0.454	0.876	0.704	0.984	1.82	2.66	1.68	1.23
F fixed	0.696	1.21	3.63	1.19	1.24	0.688	0.649	0.959	1.2	1.03
G fixed	3.59	0.728	0.679	1.29	1.06	0.492	1.2	0.937	1.15	1.16
H fixed	0.667	0.556	0.874	0.983	0.891	0.504	0.917	0.842	0.875	0.871
I fixed	0.83	1.39	2.12	0.89	0.817	4.34	0.76	0.663	0.902	0.826
K fixed	0.229	0.535	0.369	0.982	1.06	0.229	0.522	0.462	0.566	0.758
L fixed	0.605	0.987	1.36	0.876	1.05	1.6	0.878	0.694	0.954	0.899
M fixed	1.09	1.09	0.913	1.19	0.87	0.764	0.657	0.765	0.91	0.901
N fixed	0.456	0.648	0.407	0.737	0.725	0.294	1.17	1.18	0.793	1.09
P fixed	0.274	0.7	0.453	0.931	1.49	1.11	1.26	0.814	1.17	1.21
Q fixed	0.764	0.802	0.416	1.08	0.851	0.378	1.11	1.01	0.941	0.976
R fixed	0.297	0.685	0.637	1.14	1.24	0.213	0.598	0.541	0.673	0.808
S fixed	1.04	1.67	0.626	0.932	1.15	0.385	1.18	0.971	0.797	0.955
T fixed	0.976	1.5	0.709	0.94	0.926	1.28	0.896	0.901	0.692	0.848
V fixed	1.14	1.39	1.5	0.919	0.947	2.86	0.834	0.664	0.784	0.82
W fixed	1.55	1.13	1.84	1.39	1.16	0.651	0.886	1.14	1.31	1.27
pThr fixed	1.52	1.76	0.528	0.686	0.645	2.28	1.83	1.46	1.3	1.37
pTyr fixed	3.88	2.03	0.798	1.32	0.829	1.27	1.55	1.66	1.97	1.46

From the supplement of paper PMC11136658
